The results in this text go back to paper PMC5870055, “Structural and Mechanistic Analysis of the Choline Sulfatase from Sinorhizobium melliloti: A Class I Sulfatase Specific for an Alkyl Sulfate Ester” (Journal of Molecular Biology, 2018).

The target of data set [1] is T1, SmCS (Sinorhizobium meliloti choline sulfatase, BetC) (Sinorhizobium meliloti, UniProt O69787).
T1 sequence (O69787 1-512): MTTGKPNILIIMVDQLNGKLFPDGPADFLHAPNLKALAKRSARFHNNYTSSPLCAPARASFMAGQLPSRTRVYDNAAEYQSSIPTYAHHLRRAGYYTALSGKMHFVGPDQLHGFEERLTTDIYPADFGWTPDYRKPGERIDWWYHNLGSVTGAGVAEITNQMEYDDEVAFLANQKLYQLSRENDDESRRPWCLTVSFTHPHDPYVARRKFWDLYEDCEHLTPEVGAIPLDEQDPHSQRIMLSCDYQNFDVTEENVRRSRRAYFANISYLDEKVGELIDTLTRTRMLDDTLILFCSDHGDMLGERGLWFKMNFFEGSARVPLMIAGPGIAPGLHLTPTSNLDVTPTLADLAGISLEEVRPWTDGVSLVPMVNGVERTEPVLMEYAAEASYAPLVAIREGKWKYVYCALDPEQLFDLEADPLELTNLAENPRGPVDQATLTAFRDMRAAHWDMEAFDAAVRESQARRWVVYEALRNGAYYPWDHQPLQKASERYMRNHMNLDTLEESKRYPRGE
Put plainly: product inhibition kinetics. The class given is biochemical. Particulars: competitive; range over the pH values tested, single values in Fig. S11; 25 °C. The source says: product inhibition kinetics on SmCS (Sinorhizobium meliloti choline sulfatase, BetC) | The reaction product choline can act as a competitive inhibitor, albeit a relatively weak one

For data set [2], the system named is C[N+](C)(C)CCOS(=O)(=O)[O-]. Put plainly: purified protein. The note with it: pH 7.6; 25.0 °C.
The test system of data set [3] is O=[N+]([O-])c1ccc(OS(=O)(=O)O)cc1. Put plainly: purified protein. Particulars: 100 mM Tris-HCl pH 7.6, 25 °C.
Substrate in data set [4]: C[N+](C)(C)CCOS(=O)(=O)[O-]
Put plainly: purified protein. Particulars: 100 mM Tris-HCl pH 7.6, 25 °C.

Substrate in data set [5]: COP(=O)(O)Oc1ccc([N+](=O)[O-])cc1
Put plainly: purified protein. Particulars: 100 mM imidazole-HCl pH 6.0, 25 °C.

Substrate in data set [6]: O=[N+]([O-])c1ccc(OS(=O)(=O)O)cc1
Put plainly: purified protein.

Substrate in data set [7]: C[N+](C)(C)CCOP(=O)([O-])O
Put plainly: purified protein. Particulars: 100 mM Tris-HCl pH 7.6, 25 °C, no metal added.

The mark [8] stands for this setting: 100 mM imidazole-HCl pH 6.0, 25 °C.
The mark [9] stands for this setting: 100 mM Tris-HCl pH 7.6, 25 °C, made without FGE.

Bounds are passed on as bounds.

For the molecule `C[N+](C)(C)CCO` [choline], the KIC in data set [1] is ~ 52–6.3 mM.

On to “SmCS (Sinorhizobium meliloti choline sulfatase, BetC) (Sinorhizobium meliloti 1021; DEL501-512)”, for which, in data set [2], the Km result was “(1.09 ± 0.01) × 10^-2 M”, the kcat amounted to 0.021 ± 0.002 s⁻¹ and the kcat/Km came out at 1.93 ± 0.01 M⁻¹ s⁻¹. Further, in data set [3], the Km result is reported as “(9.0 ± 0.1) × 10^-2 M”, the turnover number (kcat) is 0.0159 ± 0.0001 s⁻¹ and the specificity constant (kcat/Km) stood at 0.178 ± 0.004 M⁻¹ s⁻¹.

B1: SmCS (Sinorhizobium meliloti choline sulfatase, BetC) (Sinorhizobium meliloti 1021) (protein)
chain: MTTGKPNILIIMVDQLNGKLFPDGPADFLHAPNLKALAKRSARFHNNYTSSPLCAPARASFMAGQLPSRTRVYDNAAEYQSSIPTYAHHLRRAGYYTALSGKMHFVGPDQLHGFEERLTTDIYPADFGWTPDYRKPGERIDWWYHNLGSVTGAGVAEITNQMEYDDEVAFLANQKLYQLSRENDDESRRPWCLTVSFTHPHDPYVARRKFWDLYEDCEHLTPEVGAIPLDEQDPHSQRIMLSCDYQNFDVTEENVRRSRRAYFANISYLDEKVGELIDTLTRTRMLDDTLILFCSDHGDMLGERGLWFKMNFFEGSARVPLMIAGPGIAPGLHLTPTSNLDVTPTLADLAGISLEEVRPWTDGVSLVPMVNGVERTEPVLMEYAAEASYAPLVAIREGKWKYVYCALDPEQLFDLEADPLELTNLAENPRGPVDQATLTAFRDMRAAHWDMEAFDAAVRESQARRWVVYEALRNGAYYPWDHQPLQKASERYMRNHMNLDTLEESKRYPRGE
B1: the Km result is “(5.0 ± 0.6) × 10^-4 M” in the data set “purified protein [4]” (no metal added), “(1.9 ± 0.2) × 10^-2 M” in “purified protein [6]” (setting [8]) and “(2.1 ± 0.2) × 10^-3 M” in the data set “purified protein [7]”. The catalytic constant (kcat) in “purified protein [4]” (no metal added) is 2.4 ± 0.2 s⁻¹; in the data set “purified protein [5]”, above 0.004 s⁻¹; in the data set “purified protein [6]” (setting [8]), 0.22 ± 0.01 s⁻¹; in the data set “purified protein [7]”, 0.0267 ± 0.0001 s⁻¹. In addition, the catalytic efficiency (kcat/Km) turned out to be 4800 ± 500 M⁻¹ s⁻¹ in the data set “purified protein [4]” (no metal added), 12 ± 2 M⁻¹ s⁻¹ in “purified protein [6]” (setting [8]) and 13 ± 1 M⁻¹ s⁻¹ in the data set “purified protein [7]”.

B2: SmCS (Sinorhizobium meliloti choline sulfatase, BetC) (Sinorhizobium meliloti 1021; E386L) (protein)
chain: MTTGKPNILIIMVDQLNGKLFPDGPADFLHAPNLKALAKRSARFHNNYTSSPLCAPARASFMAGQLPSRTRVYDNAAEYQSSIPTYAHHLRRAGYYTALSGKMHFVGPDQLHGFEERLTTDIYPADFGWTPDYRKPGERIDWWYHNLGSVTGAGVAEITNQMEYDDEVAFLANQKLYQLSRENDDESRRPWCLTVSFTHPHDPYVARRKFWDLYEDCEHLTPEVGAIPLDEQDPHSQRIMLSCDYQNFDVTEENVRRSRRAYFANISYLDEKVGELIDTLTRTRMLDDTLILFCSDHGDMLGERGLWFKMNFFEGSARVPLMIAGPGIAPGLHLTPTSNLDVTPTLADLAGISLEEVRPWTDGVSLVPMVNGVERTEPVLMEYAALASYAPLVAIREGKWKYVYCALDPEQLFDLEADPLELTNLAENPRGPVDQATLTAFRDMRAAHWDMEAFDAAVRESQARRWVVYEALRNGAYYPWDHQPLQKASERYMRNHMNLDTLEESKRYPRGE
On to B2, for which, in “purified protein [4]”, the kcat was above 0.012 s⁻¹ and the kcat/Km was found to be 0.81 ± 0.01 M⁻¹ s⁻¹. In the data set “purified protein [6]” (100 mM Tris-HCl pH 7.6, 25 °C), the Km result is “(5.7 ± 0.4) × 10^-2 M”, the kcat turned out to be 0.76 ± 0.03 s⁻¹ and the kcat/Km was found to be 13 ± 1 M⁻¹ s⁻¹.

B3: SmCS (Sinorhizobium meliloti choline sulfatase, BetC) (Sinorhizobium meliloti 1021; K309L) (protein)
chain: MTTGKPNILIIMVDQLNGKLFPDGPADFLHAPNLKALAKRSARFHNNYTSSPLCAPARASFMAGQLPSRTRVYDNAAEYQSSIPTYAHHLRRAGYYTALSGKMHFVGPDQLHGFEERLTTDIYPADFGWTPDYRKPGERIDWWYHNLGSVTGAGVAEITNQMEYDDEVAFLANQKLYQLSRENDDESRRPWCLTVSFTHPHDPYVARRKFWDLYEDCEHLTPEVGAIPLDEQDPHSQRIMLSCDYQNFDVTEENVRRSRRAYFANISYLDEKVGELIDTLTRTRMLDDTLILFCSDHGDMLGERGLWFLMNFFEGSARVPLMIAGPGIAPGLHLTPTSNLDVTPTLADLAGISLEEVRPWTDGVSLVPMVNGVERTEPVLMEYAAEASYAPLVAIREGKWKYVYCALDPEQLFDLEADPLELTNLAENPRGPVDQATLTAFRDMRAAHWDMEAFDAAVRESQARRWVVYEALRNGAYYPWDHQPLQKASERYMRNHMNLDTLEESKRYPRGE
As for B3, in “purified protein [6]” (100 mM Tris-HCl pH 7.6, 25 °C), the Km entry is “(8.9 ± 2.7) × 10^-2 M”, the catalytic constant (kcat) came to 1.6e-05 ± 5e-06 s⁻¹ and the kcat/Km is 0.000176 ± 1e-06 M⁻¹ s⁻¹.

B4: SmCS (Sinorhizobium meliloti choline sulfatase, BetC) (Sinorhizobium meliloti 1021; H104A) (protein)
chain: MTTGKPNILIIMVDQLNGKLFPDGPADFLHAPNLKALAKRSARFHNNYTSSPLCAPARASFMAGQLPSRTRVYDNAAEYQSSIPTYAHHLRRAGYYTALSGKMAFVGPDQLHGFEERLTTDIYPADFGWTPDYRKPGERIDWWYHNLGSVTGAGVAEITNQMEYDDEVAFLANQKLYQLSRENDDESRRPWCLTVSFTHPHDPYVARRKFWDLYEDCEHLTPEVGAIPLDEQDPHSQRIMLSCDYQNFDVTEENVRRSRRAYFANISYLDEKVGELIDTLTRTRMLDDTLILFCSDHGDMLGERGLWFKMNFFEGSARVPLMIAGPGIAPGLHLTPTSNLDVTPTLADLAGISLEEVRPWTDGVSLVPMVNGVERTEPVLMEYAAEASYAPLVAIREGKWKYVYCALDPEQLFDLEADPLELTNLAENPRGPVDQATLTAFRDMRAAHWDMEAFDAAVRESQARRWVVYEALRNGAYYPWDHQPLQKASERYMRNHMNLDTLEESKRYPRGE
Take B4: in the data set “purified protein [4]”, the Km entry was “(1.33 ± 0.01) × 10^-2 M”, the turnover number (kcat) is 0.0347 ± 0.0001 s⁻¹ and the specificity constant (kcat/Km) was determined as 2.6 ± 0.02 M⁻¹ s⁻¹.

B5: SmCS (Sinorhizobium meliloti choline sulfatase, BetC) (Sinorhizobium meliloti 1021; C54S) (protein)
chain: MTTGKPNILIIMVDQLNGKLFPDGPADFLHAPNLKALAKRSARFHNNYTSSPLSAPARASFMAGQLPSRTRVYDNAAEYQSSIPTYAHHLRRAGYYTALSGKMHFVGPDQLHGFEERLTTDIYPADFGWTPDYRKPGERIDWWYHNLGSVTGAGVAEITNQMEYDDEVAFLANQKLYQLSRENDDESRRPWCLTVSFTHPHDPYVARRKFWDLYEDCEHLTPEVGAIPLDEQDPHSQRIMLSCDYQNFDVTEENVRRSRRAYFANISYLDEKVGELIDTLTRTRMLDDTLILFCSDHGDMLGERGLWFKMNFFEGSARVPLMIAGPGIAPGLHLTPTSNLDVTPTLADLAGISLEEVRPWTDGVSLVPMVNGVERTEPVLMEYAAEASYAPLVAIREGKWKYVYCALDPEQLFDLEADPLELTNLAENPRGPVDQATLTAFRDMRAAHWDMEAFDAAVRESQARRWVVYEALRNGAYYPWDHQPLQKASERYMRNHMNLDTLEESKRYPRGE
As to B5, in “purified protein [4]” (made without FGE), the Km result is on record as “(9.4 ± 0.1) × 10^-3 M”, the kcat was found to be 0.0112 ± 0.0002 s⁻¹ and the kcat/Km was 1.19 ± 0.02 M⁻¹ s⁻¹. In addition, in “purified protein [6]” (setting [9]), the Km entry is recorded as “(3.9 ± 0.2) × 10^-2 M”, the catalytic constant (kcat) worked out at 7.3e-05 ± 1e-06 s⁻¹ and the kcat/Km came to 0.00189 ± 6e-05 M⁻¹ s⁻¹.

A word on the kcat: it is the number of substrate molecules converted per active site and unit of time at saturation. What is called kcat/Km is the turnover number divided by the Michaelis constant.
